# In PMC12065894 (Nature Communications, 2025):
# Target: the molecule itself
# Test: crystal structure; contact between molecules of the crystal lattice: the cleaved zymogen activation motif of one protease molecule lies in the substrate binding cleft of a neighbouring one; crystals grown at 18 °C
protein,measurement,value
"dasTMPRSS11D (active, autocleaved TMPRSS11D with DDDDK zymogen activation motif) (enzyme, also called active dasTMPRSS11D; Human Airway Trypsin-like protease) chain 1: ANWLINECGAGPDLITDDDDK chain 2: not shown",binding result,binds
